According to the nanobody polyreactivity screen of Harvey et al. (2022):

Assay: yeast display, Sf9 membrane polyspecificity reagent, FACS + sequencing; frameworks hold sequencing errors
Outline: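 In a synthetic yeast display library (Saccharomyces cerevisiae BJ5465), nanobody expression was induced with galactose for 36–48 hours. FACS gates were set low and high (top ~1%) using anti-HA fluorescence for expression and streptavidin fluorescence for binding of the Sf9 membrane reagent. Each polyreactivity label is drawn from the gate of origin.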

Sequence	polyreactivity (PSR sort gate)
QVQLVESGGGLVQAGGSLRLSCAASGRIFYRYAMGWYRQAPGKEREFVAAISGTGGSTYYADSVKGRFTISRDNAKNTVYLQMNSLKPEDTAVDYCAASVVSRPTYYAYYYWGQGTQVTVSS	high polyreactivity
QVQLVESGGGLVQAGGSLRLSCAASGRIFYRYAMGWYRQAPGKERELVAAINDGGSTYYADSVKGRFTISRDNAKNTVYLQMNSLKAEDTAVYYCNVVNEHQSDFVVPFDYNHWGQGTQVTVSS	low polyreactivity
QVQLVESGGGLVQAGGSLRLSCAASGRIFYRYAMGWYRQAPGKERELVAAIRYSGGRTYYADSVKGRFTISRDNAKNTVYLQMNSLKPEDTAVYYCAADGQWYYAPFRGGDYENDYWGQGTQVTVSS	low polyreactivity
QVQLVESGGGLVQAGGSLRLSCAASGRIFYRYAMGWYRQAPGKERELVAAITGSVGSTYYADSVKGRFTISRDNAKNTVYLQMNSLKPEDTAVYYCAREYHGDSRRYDYWGQGTQVTVSS	high polyreactivity
QVQLVESGGGLVQAGGSLRLSCAASGRIFYRYAMGWYRQAPGKERELVAAITYSGSSTYYADSVKGRFTISRDNAKNTVYLQMNSLKPEDTAVYYCAARFQSTNGHKYYYWGQGTQVTVSS	high polyreactivity
QVQLVESGGGLVQAGGSLRLSCAASGRIFYRYVMGWYREAPGKERELVAAIRNSGGSTYYADSVKGRFTISRDNAKNTVYLQMNSLKPEDTAVYYCAKRYGTSFYVGSAKIGYDYWGQGTQVTVSS	high polyreactivity
QVQLVESGGGLVQAGGSLRLSCAASGRIFYSNTMGWYRQAPGKERELVAAISRSGGRTYYADSVKGRFTISRDNAKHTVYLQMNSLKPEDTAVYYCNTAYYRNPYYKGYYWGQGTQVTVSS	high polyreactivity
QVQLVESGGGLVQAGGSLRLSCAASGRIFYSYAMGGYRQAPGQERELVAAIDESDGSTYYADSVKGRFTISRDNATNTVYLQLNSLKPDDTAVYYSAADSLLVLFDYWGQGTQVTVSS	low polyreactivity
QVQLVESGGGLVQAGGSLRLSCAASGRIFYSYAMGWSRQAPGKERELVAAISFSVGSTYYADSVKGRFTISRDNAKNSVYLQMNSLKPEDTAVYYCAASLGFPGYEYWGQGTQVTVSS	low polyreactivity
QVQLVESGGGLVQAGGSLRLSCAASGRIFYSYAMGWYRQAPGKERELVAAITRGGSTSYADSVKGRFTISRDNAKNTVYLQMNSLKPEDTAVYYCATRQFYSYWKYYYWGQGTQVTVSS	high polyreactivity
QVQLVESGGGLVQAGGSLRLSCAASGRIFYSYAMGWYRQAPGKERELVATISRRGGSTYYADSVKGRFTISRDNAKITVYLQMNSLKPEDTAVYYCNKGIPTRSVRSYDYWGQGTQVTVSS	high polyreactivity
QVQLVESGGGLVQAGGSLRLSCAASGRIFYSYAMGWYRQAPGKESELVAAIRSTGSTNYADSVKGRFTISRDNAKNTVYLQMNSLKPEDTAVYYCAARTSYRSSLFGYWGQGTQVTVSS	high polyreactivity
QVQLVESGGGLVQAGGSLRLSCAASGRIFYSYTMGWYRQAPGKERELVAGINRSVGSTYYADSVKGRFTISRDNAKNTVYLQMNSLKPEDTAVYYCAAGSRRRSYYTFSSVHGHYYWGQGTQVTVSS	high polyreactivity
QVQLVESGGGLVQAGGSLRLSCAASGRIFYSYVMGWYRQAPGKDRELVGAITRSGGTTYYADSVMGRFTISRDNANNPVYLQMNSLKPEDTAVYYCATRSIFNGYGYYHPYNFWGQGTQVTVSS	high polyreactivity
QVQLVESGGGLVQAGGSLRLSCAASGRIFYTNAMGWSRQAPGKERELVAVISWGGDTTYYADSVKGRFTISRDNAKNTVYLQMNSLKPEDTAVYYCNADWGPTYEIYDSWGQGTQVTVSS	low polyreactivity
QVQLVESGGGLVQAGGSLRLSCAASGRIFYTNAMGWYRQAPGKERELVAAIDYSDSTTYYADSVKGRFTISRDNAKNTVYLQMNSLKPEDTAVYYCAAESYLYTVTFEYWGQGTQVTVSS	high polyreactivity
QVQLVESGGGLVQAGGSLRLSCAASGRIFYTNAMGWYRQAPGKERELVAVISWGGDTTYYADSVKGRFTISRDNAKNTVYLQMNSLKPEDTAVYYCKADWGPTYEIYDSWGQGTQVTVSS	low polyreactivity
